# In article PMC7921785:
# T1: rPcDp1 (recombinant Dp1) (Pseudosciaena crocea (large yellow …, UniProt D2CFQ6 1-412))
# T1 sequence: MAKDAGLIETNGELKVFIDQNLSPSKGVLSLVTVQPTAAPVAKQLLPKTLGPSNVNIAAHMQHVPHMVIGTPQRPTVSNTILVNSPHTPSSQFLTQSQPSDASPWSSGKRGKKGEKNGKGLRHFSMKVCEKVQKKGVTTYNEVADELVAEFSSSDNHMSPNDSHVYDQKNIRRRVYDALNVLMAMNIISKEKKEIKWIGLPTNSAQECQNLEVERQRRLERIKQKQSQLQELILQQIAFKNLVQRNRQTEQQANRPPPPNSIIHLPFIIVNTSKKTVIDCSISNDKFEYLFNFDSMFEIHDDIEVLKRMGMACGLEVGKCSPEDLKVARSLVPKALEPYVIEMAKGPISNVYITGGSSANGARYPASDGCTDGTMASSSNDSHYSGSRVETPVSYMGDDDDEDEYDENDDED
# B1: wE2F (WE2Fsite) (dsDNA)
# DNA 1: GAGATGACGTAGTTTTCGCGCGAAACTAG
# DNA 2: CTAGTTTCGCGCGAAAACTACGTCATCTC
# Molecular target: T1, rPcDp1 (recombinant Dp1)
# Test: EMSA
binder,measurement,value
B1,binding result,binds
